From the Human Domainome abundance scans (Beltran et al. 2025)
± gives the uncertainty stated by the source.

B1: Protein maelstrom homolog, residues 3 to 71; numbered along this chain, Q96JY0 (parent)
chain: NRKASRNAYYFFVQEKIPELRRRGLPVARVADAIPYCSSDWALLREEEKEKYAEMAREWRAAQGKDPGP

Variants of: B1
Test: abundance fitness (aPCA) (normalised: wild type 0, dead -1); higher = more abundant; growth selection in yeast, the domain comes from the species named
Conditions: Homo sapiens

Abundance fitness, by site and new letter:
E54: H -0.161 ± 0.092, I 0.076 ± 0.095, P -0.346 ± 0.14, A -0.123 ± 0.059, T 0.212 ± 0.073, V -0.068 ± 0.054, Q -0.147 ± 0.076, W -0.299 ± 0.047, C -0.161 ± 0.075, G -0.049 ± 0.044, Y -0.293 ± 0.065, L -0.13 ± 0.058, K 0.027 ± 0.076, N -0.125 ± 0.09, S 0.107 ± 0.056, D 0.133 ± 0.082, F -0.396 ± 0.12
R45: V -0.151 ± 0.053, L -0.114 ± 0.048, Y -0.428 ± 0.15, P 0.147 ± 0.097, N 0.108 ± 0.12, Q 0.027 ± 0.091, E -0.003 ± 0.07, H -0.072 ± 0.11, K -0.023 ± 0.083, M -0.057 ± 0.08, C 0.016 ± 0.11, G -0.111 ± 0.056, D -0.219 ± 0.13, F -0.502 ± 0.15, W -0.511 ± 0.088, I -0.431 ± 0.23, A -0.001 ± 0.061
C37: S -0.561 ± 0.07, V -0.137 ± 0.057, M -0.291 ± 0.073, E -0.636 ± 0.13, G -0.557 ± 0.043, Y -0.741 ± 0.13, K -0.719 ± 0.13, I -0.229 ± 0.15, Q -0.636 ± 0.16, A -0.19 ± 0.075, F -0.55 ± 0.13, L -0.244 ± 0.054, R -0.731 ± 0.072, T -0.434 ± 0.11
V30: E -0.272 ± 0.068, S -0.238 ± 0.082, F -0.226 ± 0.14, R -0.614 ± 0.053, K -0.514 ± 0.087, Q -0.567 ± 0.093, H -0.17 ± 0.11, W -0.225 ± 0.067, P 0.113 ± 0.087, I -0.652 ± 0.32, Y -0.09 ± 0.13, C -0.174 ± 0.093, A -0.286 ± 0.059, N -0.559 ± 0.24, G -0.607 ± 0.061, D -0.518 ± 0.17, M -0.164 ± 0.09
I34: R -0.148 ± 0.039, D 0.113 ± 0.2, W -0.04 ± 0.062, F 0.091 ± 0.13, T -0.19 ± 0.11, V -0.137 ± 0.06, N -0.06 ± 0.15, K 0.406 ± 0.13, C -0.203 ± 0.14, Y -0.064 ± 0.26, L -0.17 ± 0.065, A -0.133 ± 0.065, M 0.069 ± 0.12, Q -0.25 ± 0.092, G -0.198 ± 0.04, E -0.113 ± 0.094, H -0.307 ± 0.25, S -0.229 ± 0.078
L43: M -0.098 ± 0.078, N 0.252 ± 0.21, C -0.176 ± 0.11, Q 0.151 ± 0.074, K -0.02 ± 0.097, F -0.473 ± 0.26, E 0.102 ± 0.05, H 0.078 ± 0.16, A 0.106 ± 0.073, G 0.064 ± 0.046, W -0.287 ± 0.063, D 0.277 ± 0.1, V 0.006 ± 0.035, P -0.477 ± 0.077, I -0.16 ± 0.24, T -0.108 ± 0.088, R 0.158 ± 0.044, Y 0.086 ± 0.14, S 0.094 ± 0.058
G24: S -0.773 ± 0.25, A -0.398 ± 0.2, D -0.311 ± 0.25
R29: P -1.09 ± 0.17, L -0.032 ± 0.056, I 0.139 ± 0.14, F -0.478 ± 0.26, D 0.148 ± 0.15, M -0.09 ± 0.09, C 0.118 ± 0.1, Q 0.041 ± 0.075, G 0.052 ± 0.05, S 0.221 ± 0.14, H -0.113 ± 0.13, K 0.178 ± 0.064, N 0.105 ± 0.11, W -0.47 ± 0.086, E 0.275 ± 0.065, Y -0.101 ± 0.15, V 0.049 ± 0.062
D40: N -0.007 ± 0.16, Y -0.48 ± 0.36, G -0.856 ± 0.44, V -0.036 ± 0.2
V27: R -0.742 ± 0.077, M -0.511 ± 0.1, D -0.738 ± 0.45, W -0.584 ± 0.1, I -0.319 ± 0.16, G -0.594 ± 0.078, L -0.329 ± 0.062, C -0.026 ± 0.1, S -0.104 ± 0.087, K -0.744 ± 0.17, Q -1.08 ± 0.21, T -0.235 ± 0.17, N -0.02 ± 0.21, F -0.159 ± 0.18, E -0.831 ± 0.15, P -0.73 ± 0.18
E46: I -0.315 ± 0.24, R -0.14 ± 0.045, F -0.215 ± 0.12, G -0.031 ± 0.055, K 0.012 ± 0.11, P 0.066 ± 0.1, D -0.266 ± 0.13, T -0.188 ± 0.071, Y -0.339 ± 0.14, H -0.101 ± 0.18, N -0.09 ± 0.13, C -0.046 ± 0.1, M -0.134 ± 0.097, A -0.23 ± 0.068, L -0.139 ± 0.05, V -0.38 ± 0.077
R22: Y -0.583 ± 0.2
S38: Y -0.06 ± 0.21, F -0.223 ± 0.2, R 0.171 ± 0.17, Q 0.155 ± 0.24, G 0.193 ± 0.17, L -0.132 ± 0.2, C -0.337 ± 0.22, M -0.154 ± 0.2
